The values that follow come from US20220064310A1 (DEVELOPMENT CENTER FOR BIOTECHNOLOGY, published 2022).

Numbering of substitutions follows the chain as printed.

Assay [1] addresses T1, CSF-1R-ECD-human Fc (in house) (human, UniProt P07333 20-512).
T1 construct: In-house fusion; also called CSF-1R-ECD-hFc; CSF1R-ECD-hFc; not shown: human Fc
Kind of assay: ELISA, coated CSF1R-ECD-hFc 1 ug/ml, anti-kappa HRP, one site specific binding fit (GraphPad Prism). The method, then:
(§1) To know the binding affinity differences among individual antibodies, ELISA method was used. ELISA plate was coated with 1 μg/ml of CSF1R-ECD-hFc, then add assay antibodies diluted from 50 nM to 1×10⁻⁵ nM (5-10× fold dilution). Assay was measured by adding anti-kappa HRP secondary antibody (1:5000 dilution). Binding curve and KD were determined with GraphPad Prism software using one site-specific binding for nonlinear fit methods. […] This loss of avidity was recovered by back mutations, as evidenced by humanized antibodies B1-Hu, B2-Hu, B1-B1, and B2-B1 clones. (See FIG. 11 and FIG. 12).

For assay [2], the target named is T1, CSF-1R-ECD-human Fc (in house). Kind of assay: ELISA, CSF1R-ECD-hFc coated at 1 ug/ml, anti-kappa HRP, one site-specific binding fit. Here is the method: as §1
The target is the same in assay [3]. Nature of the assay: ELISA, coated CSF1R-ECD-hFc 1 ug/ml, anti-kappa HRP, OD450. Here is the method: as §1
Assay [4] shares this target. Kind of assay: ELISA, CSF1R-ECD-hFc coated at 1 ug/ml, anti-kappa HRP. Here is the method: as §1

T1 sequence (P07333 20-512): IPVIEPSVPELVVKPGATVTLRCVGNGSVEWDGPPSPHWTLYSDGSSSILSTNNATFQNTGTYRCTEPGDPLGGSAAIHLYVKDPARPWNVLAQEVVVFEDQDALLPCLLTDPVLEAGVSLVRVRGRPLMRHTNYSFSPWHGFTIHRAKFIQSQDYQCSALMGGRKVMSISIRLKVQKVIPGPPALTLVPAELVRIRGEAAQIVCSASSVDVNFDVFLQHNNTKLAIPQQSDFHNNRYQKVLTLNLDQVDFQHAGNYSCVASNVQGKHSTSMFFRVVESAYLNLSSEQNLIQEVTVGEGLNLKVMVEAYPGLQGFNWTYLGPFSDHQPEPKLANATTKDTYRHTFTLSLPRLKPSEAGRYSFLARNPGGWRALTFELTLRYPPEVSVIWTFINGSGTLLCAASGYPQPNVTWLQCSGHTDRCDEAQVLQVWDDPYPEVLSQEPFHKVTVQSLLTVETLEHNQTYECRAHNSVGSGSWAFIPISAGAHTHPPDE

B1: B1-Hu(IgG4) (antibody, V domains shown)
VH: EVQLVQSGAEVKKPGATVKISCKVSGYSFTGYNMNWVQQAPGKGLEWMGNIDPYYGGTTYNQKFKGKATLTVDKSTSTAYMELSSLRSEDTAVYYCARRGDYSGSSYWYFDVWGQGTLVTVSS
VL: DIQMTQSPSSLSASVGDRVTITCKASDHINNWLAWYQQKPGKAPKLLLYGATSLETGVPSRFSGSGSGTDYTLTISSLQPEDFATYYCQQYWSTPFTFGQGTKVEIK
notes: an IgG1 and an IgG4 form
With B1, the Bmax in assay [1] was determined as 3.19.

B2: humanized AB21 B1-Hu (AB21 VHB1 with Hu AB21 VL) (antibody, V domains shown)
VH: B1 VH
VL: B1 VL
notes: Human IgG from vector pTCAE8-AB21 in FreeStyle 293 cells, kappa light chain; also called heavy chain B1 combined with light chain Hu
With B2, binding in assay [2] was put at a Kd of 0.0958 nM.

B3: B1-Hu(IgG1) (antibody, V domains shown)
VH: B1 VH
VL: B1 VL
notes: an IgG1 and an IgG4 form
For the molecule B3, the “EC50 (read off the curve)” value in assay [3] was roughly 0.04 nM.

B4: humanized AB21 B2-Hu (Hu AB21 VHB2 with Hu AB21 VL) (antibody, V domains shown)
VH: B1 VH with T17S, Q38K, M48I
VL: B1 VL
notes: Human IgG from vector pTCAE8-AB21 in FreeStyle 293 cells, kappa light chain
Turning to B4, in assay [3], the “EC50 (read off the curve)” value is roughly 0.08 nM. In assay [1], this molecule yielded a Bmax of 3.17.

B5: humanized AB21 B1-B1 (AB21 VHB1 with AB21 VLB1) (antibody, V domains shown)
VH: B1 VH
VL: B1 VL with V15L, Y49S
notes: Human IgG from vector pTCAE8-AB21 in FreeStyle 293 cells, kappa light chain; also called heavy chain B1 combined with light chain B1
In assay [2], B5 gave a Kd of 0.0558 nM.

B6: humanized AB21 Hu-Hu (Hu AB21 VH with Hu AB21 VL), the initial humanized antibody (antibody, V domains shown)
VH: B1 VH with K67R, A68V, L70I, V72A, K74T, S77D, R98T
VL: B1 VL
notes: Human IgG from vector pTCAE8-AB21 in FreeStyle 293 cells, kappa light chain (anti-kappa HRP detection); also called heavy chain Hu combined light chain Hu
As for B6, the “fold lower affinity than the original mouse antibody (M-M)” value in assay [4] is roughly 1000 fold. In assay [2], this molecule had a Kd of 83 nM.

B7: M-M(IgG4) (antibody, V domains shown)
VH: EVQLQQSGPELEKPGASVKISCKASGYSFTGYNMNWVKQSNGKSLEWIGNIDPYYGGTTYNQKFKGKATLTVDKSSSTAYMQLKSLTSEDSAVYYCARRGDYSGSSYWYFDVWGAGTTVTVSS
VL: DIQMTQSSSYLSVSLGGRVTITCKASDHINNWLAWYQQKPGNAPRLLISGATSLETGVPSRFSGSGSGKDYTLSITSLQTEDVVTYYCQQYWSTPFTFGSGTKLEIK
notes: an IgG1 and an IgG4 form
On to B7, for which, in assay [1], the Bmax is 3.2.

B8: AB21 M-M (mouse heavy chain variable region with mouse light chain variable region, recombinant) (antibody, V domains shown)
VH: B7 VH
VL: B7 VL
As to B8, binding in assay [2] was characterised by a dissociation constant (Kd) of 0.0936 nM.
